Measured values reported in paper PMC7973133, “Escherichia coli FabG 3-ketoacyl-ACP reductase proteins lacking the assigned catalytic triad residues are active enzymes” (The Journal of Biological Chemistry, 2021).

T1: E. coli FabG (3-ketoacyl-ACP reductase) (Escherichia coli, UniProt P0AEK2)
T1 construct: homotetramer
T1 sequence (P0AEK2 1-244): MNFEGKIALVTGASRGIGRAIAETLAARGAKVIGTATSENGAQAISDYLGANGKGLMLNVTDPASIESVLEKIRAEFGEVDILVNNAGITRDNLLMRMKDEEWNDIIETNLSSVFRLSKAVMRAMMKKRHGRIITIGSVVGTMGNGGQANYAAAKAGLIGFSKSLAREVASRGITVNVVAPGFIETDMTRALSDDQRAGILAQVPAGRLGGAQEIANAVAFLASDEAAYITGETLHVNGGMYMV


Experiments:
[1] = molecular target: T1, E. coli FabG (3-ketoacyl-ACP reductase); assay: fluorescence titration; format: binding
Source text: (§1) fluorescence titration on E. coli FabG (3-ketoacyl-ACP reductase) | wildtype FabG and mutant proteins S138A and Y151F could bind NADPH with Kd values

[2] = molecular target: T2, E. coli FabG (3-ketoacyl-ACP reductase) (Escherichia coli, UniProt P0AEK2, Y151F); assay: fluorescence titration; format: binding
T2 construct: homotetramer
Source text: as §1

[3] = molecular target: T3, E. coli FabG (3-ketoacyl-ACP reductase) (Escherichia coli, UniProt P0AEK2, S138A); assay: fluorescence titration; format: binding
T3 construct: homotetramer
Source text: as §1

purified protein = substrate: NC(=O)C1=CN([C@@H]2O[C@H](COP(=O)(O)OP(=O)(O)OC[C@H]3O[C@@H](n4cnc5c(N)ncnc54)[C@H](OP(=O)(O)O)[C@@H]3O)[C@@H](O)[C@H]2O)C=CC1; assay: purified protein; format: biochemical, Escherichia coli; details: acetoacetyl-ACP generated in situ (100 μM ACP, 500 μM malonyl-CoA, 500 μM acetyl-CoA, FabD, FabH), 0.1 M sodium phosphate pH 7.0, varied: cofactor

Row | Molecule | Kd [1] [µM] | Kd [2] [µM] | Kd [3] [µM] | Km (purified protein) [µM]
1 | NC(=O)C1=CN([C@@H]2O[C@H](COP(=O)(O)OP(=O)(O)OC[C@H]3O[C@@H](n4cnc5c(N)ncnc54)[C@H](OP(=O)(O)O)[C@@H]3O)[C@@H](O)[C@H]2O)C=CC1 [NADPH] | 13.2 | 15.8 | 13.9 | –
2 | E. coli FabG (3-ketoacyl-ACP reductase) (Escherichia coli K-12) (protein, homotetramer) MNFEGKIALVTGASRGIGRAIAETLAARGAKVIGTATSENGAQAISDYLGANGKGLMLNVTDPASIESVLEKIRAEFGEVDILVNNAGITRDNLLMRMKDEEWNDIIETNLSSVFRLSKAVMRAMMKKRHGRIITIGSVVGTMGNGGQANYAAAKAGLIGFSKSLAREVASRGITVNVVAPGFIETDMTRALSDDQRAGILAQVPAGRLGGAQEIANAVAFLASDEAAYITGETLHVNGGMYMV | – | – | – | 99.22
3 | E. coli FabG (3-ketoacyl-ACP reductase) (Escherichia coli K-12; K155A) (protein, homotetramer) MNFEGKIALVTGASRGIGRAIAETLAARGAKVIGTATSENGAQAISDYLGANGKGLMLNVTDPASIESVLEKIRAEFGEVDILVNNAGITRDNLLMRMKDEEWNDIIETNLSSVFRLSKAVMRAMMKKRHGRIITIGSVVGTMGNGGQANYAAAAAGLIGFSKSLAREVASRGITVNVVAPGFIETDMTRALSDDQRAGILAQVPAGRLGGAQEIANAVAFLASDEAAYITGETLHVNGGMYMV | – | – | – | 166.45
4 | E. coli FabG (3-ketoacyl-ACP reductase) (Escherichia coli K-12; Y151F) (protein, homotetramer) MNFEGKIALVTGASRGIGRAIAETLAARGAKVIGTATSENGAQAISDYLGANGKGLMLNVTDPASIESVLEKIRAEFGEVDILVNNAGITRDNLLMRMKDEEWNDIIETNLSSVFRLSKAVMRAMMKKRHGRIITIGSVVGTMGNGGQANFAAAKAGLIGFSKSLAREVASRGITVNVVAPGFIETDMTRALSDDQRAGILAQVPAGRLGGAQEIANAVAFLASDEAAYITGETLHVNGGMYMV | – | – | – | 147.72
5 | E. coli FabG (3-ketoacyl-ACP reductase) (Escherichia coli K-12; S138A) (protein, homotetramer) MNFEGKIALVTGASRGIGRAIAETLAARGAKVIGTATSENGAQAISDYLGANGKGLMLNVTDPASIESVLEKIRAEFGEVDILVNNAGITRDNLLMRMKDEEWNDIIETNLSSVFRLSKAVMRAMMKKRHGRIITIGAVVGTMGNGGQANYAAAKAGLIGFSKSLAREVASRGITVNVVAPGFIETDMTRALSDDQRAGILAQVPAGRLGGAQEIANAVAFLASDEAAYITGETLHVNGGMYMV | – | – | – | 101.47
